Data as given in the supplement of paper PMC12042874.
± gives the uncertainty stated by the source.

Assay: amyloid nucleation score (Sup35N fusion, yeast selection) (log enrichment); library NNK3; higher = more nucleation; inactive = no reads after selection
Outline: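 After 24 hours of induction with 100 μM copper sulfate, psi-negative yeast expressing peptides of 20 random codons fused to Sup35N were grown for 7 days at 30°C on medium lacking adenine and uracil. Input and output plasmid inserts were sequenced with Illumina, and sequences with under 100 input reads were discarded. Scores for nucleation are the DiMSum log enrichment of output over input reads, centred on the mode score of non-aggregating sequences.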

Substance | amyloid nucleation score
KVTLRNRFISMPNFMIEP | inactive
KVVNGVRCKKSQGLI | inactive
KVVVMDCWWNNIYCTDQWVI | -0.021 ± 0.22
KWFRHFHI | inactive
KWKFCSGYAELMLP | inactive
KWRDIIYCIYSIMIDSCTSR | inactive
KWTSCSYPH | inactive
KWVKPRVVTQKR | inactive
KYCNFTGVFWQTNIFTVVPM | 2.17 ± 0.087
KYEVCSYFNLCGEGKYRTVV | inactive
KYFRNIYWHISRRIWAKAPG | inactive
KYGFAVRPFDTGSRMSHFCW | inactive
KYINFSLNS | inactive
KYKVDIMLRIARSTVFSDSF | inactive
KYVRVLHCIDLFRSSLSHIG | inactive
KYWLMVWRFNYCMTYNGGLE | inactive
LAEVMTVLLFDYVNHWGSAI | inactive
LAIFMDSENSYKRMHTVT | inactive
LAKDVFIC | inactive
LALFDRGTCRQSSVYSGEDS | inactive
LAPRSMGIATSSHGSSNVIG | -0.387 ± 0.88
LARLCCLSVSFSKLLIVFTI | inactive
LASIHCVHLMRTYVRVQPPM | 0.87 ± 0.26
LASRMMFSLTDAMTDADGSV | inactive

Substance | amyloid nucleation score
LASRRQMMWVVHRFLNGAVH | inactive
LASVLEYESWLSLFIWQSKH | 0.195 ± 0.34
LAVFSNRRCFFLENQYHRRS | inactive
LAVYPTGTDRDFGF | inactive
LAVYSSINFSRNGGSLTWTI | inactive
LCCKIHSRTKMRRGSC | inactive
LCCRQVTFERDVVVRYRRRR | inactive
LCERIGVISGA | inactive
LCFFV | inactive
LCFNCGVFCFFFRVGETTNW | 2.84 ± 0.056
LCFRCASLTESIGL | inactive
LCFWNGLTTIDYYSFMGLLS | 0.409 ± 0.15
LCGSKICFLDSYDVESLISR | inactive
LCGYGSGKTISG | inactive
LCICFRNLLFEWCSLAE | inactive
LCKIRECHCNLYHRVYMGWN | inactive
LCLVSLVIHHGYVLVT | inactive
LCNFKDSADNWVSVGGNVGE | inactive
LCPLMAY | inactive
LCPRFGEEWCC | inactive
LCQTVCRAPI | inactive
LCRSSMGPFGNLWEKQLYIW | inactive
LCSAIGWSSACIFVWSYYTR | inactive
LCSVDVVLPVKYCVLPDH | 1.76 ± 0.076

Substance | amyloid nucleation score
LCTSLLKF | -0.5 ± 0.9
LCVDVS | inactive
LCVFL | 1.1 ± 0.15
LCVFWCGIPDRVFCNNGWMV | inactive
LCWVNQVREMGRWNTGVQSG | inactive
LDCTHSTLFWWRRFVSAYSL | inactive
LDERCLLVGMAYMLVCY | inactive
LDLCSRL | inactive
LDLDSNIGFISVLPF | inactive
LDLDVDNVSSDGKTWMGLV | inactive
LDMKPRQARTFFLNHGVLPA | 0.313 ± 0.78
LDNTLDN | inactive
LEDRACVFNKLIVLQ | inactive
LENFRCPVEGAVQERFGANL | inactive
LENGVHVRRSIEF | inactive
LENRSFNMMMFV | inactive
LERHL | inactive
LESFAGQAQWGCGSYQSFCL | inactive
LFCIY | inactive
LFDIVSQITLWQGPTHAFFK | inactive
LFGARDVFFER | inactive
LFGCEQRYP | inactive
LFGCNERCFYFAF | inactive
LFGGCLSLDDIVTDRLMTCF | inactive

Substance | amyloid nucleation score
LFGNSNRSGCSSLRQIGCLC | inactive
LFGSF | inactive
LFGYSNSRRHMIGMQSY | inactive
LFIRQG | inactive
LFIWTDILTFLRS | inactive
LFLVA | inactive
LFMCIAMM | 0.284 ± 0.46
LFMLGQLLTWDFHALSSGYV | 0.523 ± 0.19
LFMRCSYCSV | inactive
LFNNFYLVSFGWLDGG | 2.31 ± 0.068
LFNPMKTVYWHNLAIWHYDV | inactive
LFRFS | inactive
LFRIRQCFFYFSIFLVFSIK | inactive
LFRLACVTNMRSNLLSYRRC | 0.131 ± 0.64
LFRVSWMLGNKIDISKSIYR | inactive
LFSHESLVTTGLVAVFSLAK | inactive
LFSSFTSPLRMRWLDRSYHF | inactive
LFTKRSYCCSCVVSGSEWAY | 0.852 ± 0.21
LFVIINPQVTWLLFRMFESH | inactive
LFYCSNCGKGIIQLRVGLYP | inactive
LFYKREALMRGISSFKELSN | inactive
LFYLGIYDFDGNW | inactive
LGDAFWFEIH | inactive
LGFFSSSKLLVGGASASIVS | inactive

Substance | amyloid nucleation score
LGFHTYRNLGKMHI | inactive
LGGYFLFNIITVGSTGMRKH | 2.06 ± 0.089
LGHVCILVQGGSKVRPTYGS | inactive
LGHYAKPLSSVQQNRTNMGA | inactive
LGKKLDCGDSMRSVRPICRG | inactive
LGNGSLVIG | 0.033 ± 0.27
LGPREQDLINFNWVFQYLKH | inactive
LGSTKSPLSCVY | inactive
LGVCVWQCLGMSIVNALKRL | inactive
LGVMSAVRAIGGFEILIGCV | inactive
LGVRNDPQQSLPVQFGFELE | 0.041 ± 1.2
LGVWRGIGPWRWAKKRWRVA | inactive
LHCFIMLIKCDRVMIVTVQG | inactive
LHITVEIWTLWK | inactive
LHKALQYTKTLSESRRLCNR | inactive
LHLTDLYYGF | inactive
LHPLYRFSANSSKDLFTSRT | inactive
LHQSSTGLSC | inactive
LHRLMLTRCVPGFV | -0.443 ± 0.98
LHRSCAIAA | inactive
LHSSNCCNEIVMRNRCWRKF | inactive
LHTPIMRNYR | inactive
LHVLDYDPDLRCFQMLYMCG | inactive
